Measured values published in the nanobody polyreactivity screen of Harvey et al. (2022).

Assay: yeast display, Sf9 membrane polyspecificity reagent, FACS + sequencing; frameworks hold sequencing errors
Procedure, shortened: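 Galactose-induced (36–48 hours) yeast carrying a synthetic nanobody display library were exposed to 10% biotinylated, detergent-solubilized Sf9 membrane reagent at 4 °C for 1 hour. FACS followed streptavidin microbead enrichment, using low and high (top ~1%) gates for expression (anti-HA) and reagent binding (streptavidin). Colony PCR, MiSeq 2 × 250 sequencing and CDR-length filtering followed. Labels for polyreactivity reflect the gate of origin.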

Sequence	polyreactivity (PSR sort gate)
QVQLVESGGGLVQAGGRLRLSCAASGRIFGWIAMGWSRQAPGKDRELVAAISADGNTYSADSVKGRFTISRDNAKNTVYVQKNSLKPEDTAVSYCAAESWSADFSWYDYWGQGTQVTVSS	high polyreactivity
QVQLVESGGGLVQAGGSLRLTCAASGSTFVINVMGWYRQAPGKERELVAAISNGGRTYADSVKGRFTISRDNAKNTVYLQMNSLKPEDTAVYYCAADVSFTQSDGRLAEYGYWGQGTQVTVSS	low polyreactivity
QDQLVESCGGLVQAGGSLRLSCAASGHIFIYYAMGWYRQAPWKERELVAVISGSGGRTYYADSVKGRFTISRDYAKNTVSLQMNSLKPEDTAVYYCAAAVRYYPHYDSWGQGTQVNVSS	low polyreactivity
QVQLVESGGGLVQAGGSLRLSCAASGRISVVNAMGWYRQAPGKERELVATINRGGSTYADSVKGRFTISRDNAKNTVYLQMNSLKPEDTAVYYCAARTFRISRMDYWGQGTQVTVSS	high polyreactivity
QVQLVESGGRLVQAGGSLRLSCAASGRTFLVNDMGWYRQAPGKERELVAAINYNAGSTFYADSVKGRFTISRDIAKNTVYLQMNSLKPEDTAVYYCATDVYGYVEYDYWGQGTQVTVSS	low polyreactivity
QVQLVESGGGLVQAGGSLRLSCAASGSTFAIYAMGWYRQAPGKERELVAAITRGSTSYADSVKGRFTISRDNAKNTVYLQMNSLKPEDTAVYYCAADSSRYGVIRDFDYWGQGTQVTVSS	high polyreactivity
QVQLVESGGGLVQAGGSLRLSCAASGRIFSWYAMGWYRQAPGKERELVAAISASGSSTYYADSVKGRFTISRDNAKNTVYLQMNSLKPEDTAVYYCNTVSAYYARRSEGYDYWGQGTQVTVSS	high polyreactivity
QVQLVESGGGLVQAGGSLRLSCAASGIIISRYAMGWYRQAPGKERELVADISIGDSTNYADSVKGRFTISRDNAKNTVYLQMNSLKPEDTAVYYCAAGDYFYSYYYWGQGTQVTVSS	low polyreactivity
QVQLVESGGGLVQAGGSLRLSCAASGRTFCTNAMGWYRQAPGKERELVAVISGSTGSTYYADSVKGRFTISRDNAKNTVYLQMNSLKPEDTAVYYCAASYRNTGRWSYRGDYWGQGTQVTVSS	high polyreactivity
QVQLVESGGGLVQAGGSLPLSCAASGSTFLQYAMGWYRQAPGKERELVAAIRGRGDSTYYADSVNGRFTISRDNEMNTVYLQMNSLKPVDSAVYSCAARGQGSRGMYYWGQGTKVTVSS	low polyreactivity
QVQLVESGGGLVQAGGSLRLSCAASGLTFVDYAMGWYRQAPGKERELVAAITSSGGSITYYADSVKGRFTISRDNAKNTVYSQMNSLKPEDTAVYYCNADYGIYTDSFRGPDYESWGQGTQVTVSS	low polyreactivity
QVQLVESGGGLVQAGGSLRLSCAASGITFRRYAMGWYRQAPGKERELVASITSGGSTNYADSVKGRFTISRDNAKNTVYLQMNSLKPEDTAVYYCAADSRWGMDYWGQGTQVTVSS	high polyreactivity
QVQLVESGGGLVQAGGSLRLSCAASGFTFQYYAMGWYRQAPGKERELVPSISWSGGSTYYADSVKGRFTISRDHAKNTVYFQMNSLKPEDTAVYYCADSVTYLFCSARFSAYGYWGQGTQVTVSS	high polyreactivity
QVQLVESGGGLVQAGGSLRLSCAASGSTILAYALGWYRPAPGKERELVAAIRRGGTSTYSADSLKGRFTISRDKAKKTVYLQINSLQPEDTAVYYCNKAYITKRGVSGSNDYWGQGTQVTVSS	low polyreactivity
QVQLGESGGGLVQAGGSLRLSCAASGGTFTSYAMGWYRQAPGKERELVAGITSSGGNTYYADSVKGRFTISRDNAKNTVYLQMNSLKPEDTAVYYCAAKSGRGRTMDYWGQGTQVTVSS	high polyreactivity
QVQLLESGGGLVQAGGSLRLSCAASGRTFEKNAMGWYRQAPGNERELVASITSVGSTDYADSVKGSFTISRDNAKNTVYLQMNSLKPEDNAVYYCAKTLGSQNYDFDYWGQGTQVNVSS	low polyreactivity

Sequence	polyreactivity (PSR sort gate)
QVQLVESGGGLVQAGGSLRLSCAASGSTFDGNAMGWYRQAPGKERELVAAITSGGSTNYADSVKGRFTISRDNAKNTDYLQMNSLKPEDTAVYYCAADTVSFSILYDYWGQGTQVTVSS	low polyreactivity
QVQLVESGGGLDQAGGSLRLSWAASGITFGWYAKGWYRLAPGKERELVASISSSGSTNYADSVKGRLTISRDNAKNTVYLQMNSQKTEDTAVYYCNKDYLLRHFYIYVIEGDYWGQGTKVTVSS	low polyreactivity
QVQLVESGGGLVQAGGSLRLSCAASGSILGYYGMGWYRHAPGKERELVAAISSSCNTNYADSVKGRFTISRDNAKNTVYLQMMSLKPEDTAVYYCAASFQYVAYYLYDYWGQGTQVTVSS	low polyreactivity
QVQLVESGGGLVQAGGSLRLSCAASGSIFDLNAMGWYRQAPGKERELVAAISKSGGSTYYADSVKGRFTISRDNAKNTVYLQMNSLKPEDTAVYYCATSGDRLVWGQGTQVTVSW	low polyreactivity
QVQLVESGGGLVQAGGSLRLICAASGSIFGNYVMGWYRQAPGKEMELVAGISTRGGSTYYADSVKGRFTISRDNAKNTVYLQMNCLKPEDTAVYYCAAVPASYRYPMYYWGQGTQVTVSS	low polyreactivity
QVQLVESGGGLVQAGGSLRLSCAASGSIFVKYAMGWYRQAPGKERELVAAISGSGGSTYYADSVKGRFTISRDNAKNTVYLQMNSLKPEDTAVYYCAAAYHGRHYYWGQGTQVTVSS	high polyreactivity
QVQLVESGGGLVQAGGSLRLSCAASGSIFWFNAMGWYRQAPGNERELVATIRYSGGSTYYADSVKGRFTISRDNAKNTVYLQMNSLKPEDTAVYYCAAVSRYSRSGYEYWGQGTQVTVSS	high polyreactivity
QVQLVESGGGLVQAGGSLRLSCAASGSTFNEYVMGWYRQAPGKERELVAAITGGGGRTYYADSVKGRFTISRDNAKITVYLQMNSQKPEDTAFYDCAKRYLYGTYWGFFRYDYWGQGTQVTVSS	low polyreactivity
QVQLVESGGGLVQAGGSLRLSCAASGSTFTDYAMGWYRQAPGKERELVAAIRFSGGSTYYADSVKGRFTISRDNAKTTVYLQMNSLKPEDTAVYYCAAAGYPWLDSWGQGTQVTVSS	low polyreactivity
QVQLVESGGGLVQAGGSLRLSCAASGRTFTNNVMGWYRQAPGKERELVAAITSGGTNYADSVKGRFTISRDNAKNTVYLQMNSLKPEDTAVYYCATDYYDEVTIGYDYWGQGTQVTVSS	low polyreactivity
QVQLVESGGGLVQAGGSLRLSCAASGSTFANYAMGWYRQAPGKERELVAAISRGGNTYYADSVKVRFTISRDNAKNTVYLQMNSLKPEDTAVYYCAKYTYYSRPGDSDSDYWGQGTQVTVSS	high polyreactivity
QVQLVESGGGLVQAGGSLRLSCAPSGRTFGYNGRGWSRQEPGKESELVAAINSGGNTNYADSVKGRFTISRDYAKNTVYLQMNSLKPEDTAVYYCAKYGTLFEPVPNEYDYWGQGTQVTVSS	low polyreactivity
QVQLVESGGGLVQAGGSLRLSCAASGSTFNSYVMGWYRQAPGQERELVAAITWSGGRTYYADSVKGRFTISRDNAKNTVYLQMNSLKPEDTAVYYCARKKRRGRDWGYDYWGQGTQVTVSS	high polyreactivity
QVQLVESGGGLVQAGGSLRLSCVASGRIFQSYAMGWYRQAPGKERELVARITGGSSTYYADSVKGRFTISRDNAKNTVYLQMNSLKPEDTAVYYCAARTRGPDRARYDYWGQGTQVTVSS	low polyreactivity
QVQLVESGGGLVQAGGRLRLSCAASGSTFWYYAMGWSRQAPGKEREFVAAITTGGSSTYYADSVKGRFTISRDNAKNTVYLQMNSLKPEDTAVYYCAARGWRSPYAYYYWGQGTQVTVSS	high polyreactivity
QVQLVESGGGLVQAGGSLRLSCAASGSIFGDNAMGWYRQAPGKERELVATISSSDASTYYADSVKGRFTISRDNAKNTVYLQMNSLKPEDTSVYYCAAARSGGYDYWGQGTQVTVSS	low polyreactivity
